Source: patent US20210130436A1 (published 2021)
Residue numbers refer to the chain shown, from its start. In names and notes the source's numbering stands. One block for each binder: values may come before it.

What was measured:
[1] = biological target: human CD28 (human, UniProt P10747 19-220); experiment: flow cytometry, Jurkat cells (CD28)
[2] = biological target: T1, human PD-L1 (human, UniProt Q9NZQ7 19-290); experiment: flow cytometry, CHO cells stably expressing PD-L1
T1 construct: also called huPD-L1; CD274
T1 sequence (Q9NZQ7 19-290): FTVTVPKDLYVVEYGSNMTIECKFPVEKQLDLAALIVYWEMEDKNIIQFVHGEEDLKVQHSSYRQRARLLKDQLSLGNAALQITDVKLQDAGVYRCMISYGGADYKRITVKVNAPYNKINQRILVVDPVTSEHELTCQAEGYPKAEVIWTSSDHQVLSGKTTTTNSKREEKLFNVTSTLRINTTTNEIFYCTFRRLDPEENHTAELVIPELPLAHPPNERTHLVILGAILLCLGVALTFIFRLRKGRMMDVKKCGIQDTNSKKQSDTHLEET

[3] = biological target: T1, human PD-L1; experiment: flow cytometry; PD-L1 MFI over CD28 MFI
[4] = biological target: T2, human CTLA-4 (human, UniProt P16410 36-223); experiment: flow cytometry, CHO cells stably expressing CTLA4
T2 construct: also called huCTLA4

[5] = biological target: T1, human PD-L1; experiment: cell-based or functional assay
[6] = biological target: T3, human CTLA4 (human, UniProt P16410 36-223); experiment: flow cytometry, CHO cells expressing huCTLA4
T3 construct: also called huCTLA4

[7] = biological target: T4, human PD-L1 (human, UniProt Q9NZQ7 19-290); experiment: flow cytometry, CHO cells expressing huPD-L1; MFI against WT CD80 IgV-Fc
T4 construct: also called huPD-L1; CD274

[8] = biological target: T4, human PD-L1; experiment: flow cytometry; PD-L1 MFI over CD28 MFI at 33.3 nM
[9] = biological target: T5, human CD28 (human, UniProt P10747 19-220); experiment: flow cytometry, Jurkat/IL2 reporter cells (endogenous CD28)
[10] = biological target: T5, human CD28; experiment: flow cytometry, Jurkat/IL2 reporter cells (endogenous CD28); MFI against WT CD80 IgV-Fc
[11] = biological target: T3, human CTLA4; experiment: flow cytometry, CHO cells expressing huCTLA4; MFI against WT CD80 IgV-Fc
[12] = biological target: T4, human PD-L1; experiment: flow cytometry, CHO cells expressing huPD-L1
Target sequence in this assay (Q9NZQ7 19-290): as above

[13] = biological target: T6, CD28, endogenously expressed on Jurkat/IL2 reporter cells (human, UniProt P10747 19-220); experiment: flow cytometry on Jurkat/IL2 reporter cells (endogenous CD28); PE anti-human Fc
T6 construct: Endogenous CD28 of Jurkat/IL2 reporter cells

[14] = biological target: T6, CD28, endogenously expressed on …; experiment: flow cytometry on Jurkat/IL2 reporter cells (endogenous CD28); MFI relative to WT CD80 ECD-Fc (R&D)
[15] = biological target: T7, human PD-L1, expressed on CHO cells (human, UniProt Q9NZQ7 19-290); experiment: flow cytometry on CHO cells stably expressing human PD-L1; MFI relative to WT CD80 ECD-Fc (R&D)
T7 construct: Full-length surface expression construct transduced by lentivirus into CHO cells; also called huPD-L1; CD274

[16] = biological target: T8, human CTLA-4 (CTLA4), expressed on CHO cells (human, UniProt P16410 36-223); experiment: flow cytometry on CHO cells stably expressing human CTLA-4; MFI relative to WT CD80 ECD-Fc (R&D)
T8 construct: Full-length surface expression construct transduced by lentivirus into CHO cells; also called huCTLA4

[17] = biological target: T7, human PD-L1, expressed on CHO cells; experiment: flow cytometry on CHO cells stably expressing human PD-L1; PE anti-human Fc
[18] = biological target: T8, human CTLA-4 (CTLA4), expressed on CHO …; experiment: flow cytometry on CHO cells stably expressing human CTLA-4; PE anti-human Fc
[19] = biological target: T7, human PD-L1, expressed on CHO cells; experiment: flow cytometry; ratio of MFI on PD-L1 CHO cells to MFI on Jurkat (CD28) cells
[20] = biological target: T9, human PD-L1, expressed on cells (human, UniProt Q9NZQ7 19-290); experiment: flow cytometry on CD14+ monocytes (monocyte-expressed PD-L1) of PBMC cultured overnight with anti-CD3 and anti-CD28 (FIG. 19B)
T9 construct: On CHO/PD-L1, K562/OKT3/PD-L1 and CHO/OKT3/PD-L1 aAPC, huPD-L1-transduced MC38 cells, or primary human monocytes; also called huPD-L1; hPD-L1

[21] = biological target: T10, human CD28, on Jurkat/IL2 reporter cells or primary human T cells (human, UniProt P10747 19-220); experiment: flow cytometry on unactivated primary human pan T cells (CD28+), anti-human IgG detection (FIG. 19A)
T10 construct: Endogenous CD28 of Jurkat cells or of primary human T cells

[22] = biological target: T11, PD-1 (Homo sapiens (Human), UniProt Q15116 21-288); experiment: flow cytometry on Jurkat/PD-1 cells, 50 nM
T11 construct: The construct in the cells is not described; also called PDCD1

[23] = biological target: T12, CD226 (Homo sapiens (Human), UniProt Q15762 19-336); experiment: flow cytometry on CD226-transfected Expi293 cells
T12 construct: also called CD226 tfxn
T12 sequence: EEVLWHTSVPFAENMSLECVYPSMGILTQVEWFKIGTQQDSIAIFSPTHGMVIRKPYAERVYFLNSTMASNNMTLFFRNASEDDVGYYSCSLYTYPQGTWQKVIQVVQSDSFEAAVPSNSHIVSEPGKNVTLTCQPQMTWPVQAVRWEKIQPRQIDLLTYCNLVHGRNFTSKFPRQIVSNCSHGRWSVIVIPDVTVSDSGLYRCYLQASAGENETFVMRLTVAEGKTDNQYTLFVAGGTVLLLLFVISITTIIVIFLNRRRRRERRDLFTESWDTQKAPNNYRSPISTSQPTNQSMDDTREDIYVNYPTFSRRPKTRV

[24] = biological target: T13, CD96 (UniProt P40200 22-585, limits assumed); experiment: flow cytometry on CD96-expressing cells; ratio to unmodified CD155 Fc fusion
T13 construct: whole, on cells
T13 sequence (looked up): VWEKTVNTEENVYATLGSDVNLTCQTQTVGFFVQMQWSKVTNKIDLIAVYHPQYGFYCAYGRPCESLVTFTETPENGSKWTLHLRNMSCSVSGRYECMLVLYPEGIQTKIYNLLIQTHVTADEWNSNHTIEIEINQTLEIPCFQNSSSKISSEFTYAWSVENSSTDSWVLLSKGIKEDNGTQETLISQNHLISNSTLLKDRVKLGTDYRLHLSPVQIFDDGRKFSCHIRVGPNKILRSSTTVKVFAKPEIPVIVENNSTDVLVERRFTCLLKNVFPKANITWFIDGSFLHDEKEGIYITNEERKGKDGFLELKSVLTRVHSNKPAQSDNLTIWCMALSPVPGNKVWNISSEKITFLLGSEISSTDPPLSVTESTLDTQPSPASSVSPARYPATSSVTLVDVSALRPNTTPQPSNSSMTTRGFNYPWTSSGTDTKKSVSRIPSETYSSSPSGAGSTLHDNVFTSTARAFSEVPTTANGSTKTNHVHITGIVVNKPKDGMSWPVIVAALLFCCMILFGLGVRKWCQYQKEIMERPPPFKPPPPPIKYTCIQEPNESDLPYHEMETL

[25] = biological target: T13, CD96; experiment: flow cytometry on CD96-expressing cells
[26] = biological target: T12, CD226; experiment: flow cytometry on CD226-transfected Expi293 cells; ratio to unmodified CD155 Fc fusion
[27] = biological target: T14, TIGIT (Homo sapiens (Human), UniProt Q495A1 23-244); experiment: flow cytometry on TIGIT-transfected Expi293 cells
T14 construct: also called TIGIT tfxn
T14 sequence: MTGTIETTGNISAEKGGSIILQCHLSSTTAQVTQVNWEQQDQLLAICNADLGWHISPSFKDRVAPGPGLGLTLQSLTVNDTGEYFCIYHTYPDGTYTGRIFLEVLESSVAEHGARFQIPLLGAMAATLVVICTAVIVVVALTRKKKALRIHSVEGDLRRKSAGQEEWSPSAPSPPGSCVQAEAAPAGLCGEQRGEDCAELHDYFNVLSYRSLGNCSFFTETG

[28] = biological target: T14, TIGIT; experiment: flow cytometry on TIGIT-transfected Expi293 cells; ratio to unmodified CD155 Fc fusion

T8 sequence (P16410 36-223): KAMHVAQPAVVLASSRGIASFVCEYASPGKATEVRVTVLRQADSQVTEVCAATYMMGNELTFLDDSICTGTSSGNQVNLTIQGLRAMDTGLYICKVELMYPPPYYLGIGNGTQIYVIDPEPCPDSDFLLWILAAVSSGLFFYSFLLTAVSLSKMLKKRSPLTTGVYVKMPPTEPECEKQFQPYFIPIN
T3 sequence (P16410 36-223): as above
T7 sequence (Q9NZQ7 19-290): as the sequence (Q9NZQ7 19-290) above
T2 sequence (P16410 36-223): as the sequence (P16410 36-223) above
T9 sequence (Q9NZQ7 19-290): as the sequence (Q9NZQ7 19-290) above
T11 sequence (Q15116 21-288): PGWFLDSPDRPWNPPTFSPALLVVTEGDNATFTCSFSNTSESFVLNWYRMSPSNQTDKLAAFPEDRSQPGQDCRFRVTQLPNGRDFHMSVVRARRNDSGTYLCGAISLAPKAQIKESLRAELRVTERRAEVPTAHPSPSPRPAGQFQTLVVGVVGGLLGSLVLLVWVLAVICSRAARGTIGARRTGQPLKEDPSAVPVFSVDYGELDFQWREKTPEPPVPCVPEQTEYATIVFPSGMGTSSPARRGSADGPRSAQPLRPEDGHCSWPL

- Fold change to WT CD80 [1]: 3 fold
- MFI at 33.3 nM [1]: 95 MFI
- Fold change to WT CD80 [2]: 0.9 fold
- MFI at 33.3 nM [2]: 44 MFI
- Ratio of PDL1:CD28 [3]: 0.5 ratio
- Fold change to WT CD80 [4]: 15.1 fold
- MFI at 33.3 nM [4]: 26400 MFI
- Fold Increase over WT CD80-IgV-Fc, Jurkat/IL2 + CHO/OKT3/PD-L1 Reporter Assay [5]: 1 fold
B1: CD80 WT IgV-Fc (Fc fusion, not shown: a dimerising Fc or GST)
chain: VIHVTKEVKEVATLSCGHNVSVEELAQTRIYWQKEKKMVLTMMSGDMNIWPEYKNRTIFDITNNLSIVILALRPSDEGTYECVVLKYEKDAFKREHLAEVTLSVKAD
notes: Wild-type control; also called WT CD80-IgV-Fc

- MFI at 33.3 nM [6]: 24000 MFI
- Fold change to WT CD80 [7]: 228 fold
- Ratio of PDL1:CD28 [8]: 30.7 ratio
- MFI at 33.3 nM [9]: 324 MFI
- Fold change to WT CD80 [10]: 7.4 fold
- Fold change to WT CD80 [11]: 17.7 fold
- MFI at 33.3 nM [12]: 9950 MFI
B2: variant CD80 IgV-Fc H18Y/A26E/E35D/M47L (Fc fusion, not shown: small tags and cut ends; a dimerising Fc or GST)
chain: B1 chain with H18Y, A26E, E35D, M47L

- MFI at 33.3 nM [13]: 27100 MFI
- Fold change to WT CD80 [14]: 1.5 fold
- Fold change to WT CD80 [15]: 6.06 fold
- Fold change to WT CD80 [16]: 1.74 fold
- MFI at 33.3 nM [17]: 71900 MFI
- MFI at 33.3 nM [18]: 273000 MFI
- Ratio of PDL1:CD28 [19]: 3 ratio
B3: variant CD80 IgV-Fc E35D/D46E/M47V/V68M/D90G/K93E (Fc fusion, not shown: small tags and cut ends; a dimerising Fc or GST)
chain: B1 chain with E35D, D46E, M47V, V68M, D90G, K93E
notes: Fc fusion of the variant IgV

- MFI at 33.3 nM [13]: 2460 MFI
- Fold change to WT CD80 [14]: 0.14 fold
- Fold change to WT CD80 [15]: 3.93 fold
- Fold change to WT CD80 [16]: 1.37 fold
- MFI at 33.3 nM [17]: 46700 MFI
- MFI at 33.3 nM [18]: 216000 MFI
- Ratio of PDL1:CD28 [19]: 19 ratio
B4: variant CD80 IgV-Fc E35D/M47L/A71G/L85M/F92Y (Fc fusion, not shown: small tags and cut ends; a dimerising Fc or GST)
chain: B1 chain with E35D, M47L, A71G, L85M, F92Y
notes: Fc fusion of the variant IgV

- MFI at 33.3 nM [6]: 22300 MFI
- Fold change to WT CD80 [7]: 703 fold
- Ratio of PDL1:CD28 [8]: 9 ratio
- MFI at 33.3 nM [9]: 3410 MFI
- Fold change to WT CD80 [10]: 77.8 fold
- Fold change to WT CD80 [11]: 16.4 fold
- MFI at 33.3 nM [12]: 30700 MFI
B5: variant CD80 IgV-Fc H18Y/V68M/A71G/D90G (Fc fusion, not shown: small tags and cut ends; a dimerising Fc or GST)
chain: B1 chain with H18Y, V68M, A71G, D90G

- binding result [20]: binds
- binding result [21]: binds
B6: CD80 variant E35D/M47V/N48K/V68M/K89N IgV (SEQ ID NO: 2250)-Fc (inert) (Fc fusion)
chain: VIHVTKEVKEVATLSCGHNVSVEELAQTRIYWQKDKKMVLTMMSGDVKIWPEYKNRTIFDITNNLSIMILALRPSDEGTYECVVLKYENDAFKREHLAEVTLSVKADGSGGGGSEPKSSDKTHTCPPCPAPEAEGAPSVFLFPPKPKDTLMISRTPEVTCVVVDVSHEDPEVKFNWYVDGVEVHNAKTKPREEQYNSTYRVVSVLTVLHQDWLNGKEYKCKVSNKALPAPIEKTISKAKGQPREPQVYTLPPSREEMTKNQVSLTCLVKGFYPSDIAVEWESNGQPENNYKTTPPVLDSDGSFFLYSKLTVDKSRWQQGNVFSCSVMHEALHNHYTQKSLSLSPG
notes: also called E35D/M47V/N48K/V68M/K89N CD80 IgV-Fc; CD80 vIgD-Fc

- binding result [20]: binds
- binding result [21]: binds
B7: CD80 variant E35D/D46V/M47L/V68M/L85Q/E88D IgV (SEQ ID NO: 2280)-Fc (inert) (Fc fusion)
chain: B6 chain with D46V, V47L, K48N, L85Q, E88D, N89K
notes: also called E35D/D46V/M47L/V68M/L85Q/E88D CD80 IgV-Fc; CD80 vIgD-Fc

- Fold increase over wildtype PD-L1 IgV-Fc [22]: 0 fold
- MFI at 50 nM [22]: 251
B8: PD-L1 A33D/S75P/D104G IgV-Fc (Fc fusion, not shown: a dimerising Fc or GST)
chain: FTVTVPKDLYVVEYGSNMTIECKFPVEKQLDLDALIVYWEMEDKNIIQFVHGEEDLKVQHSSYRQRARLLKDQLPLGNAALQITDVKLQDAGVYRCMISYGGAGYKRITVKVNA

- MFI [23]: 4170 MFI
- MFI parental ratio [24]: 0.8 fold
- MFI [25]: 2620 MFI
- MFI parental ratio [26]: 1.1 fold
- MFI [27]: 2910 MFI
- MFI parental ratio [28]: 1.1 fold
B9: variant CD155 IgV-Fc A81V/L83P (Fc fusion, not shown: a dimerising Fc or GST)
chain: WPPPGTGDVVVQAPTQVPGFLGDSVTLPCYLQVPNMEVTHVSQLTWARHGESGSMAVFHQTQGPSYSESKRLEFVAARLGVEPRNASLRMFGLRVEDEGNYTCLFVTFPQGSRSVDIWLRVL

- MFI [23]: 5140 MFI
- MFI parental ratio [24]: 1.1 fold
- MFI [25]: 3280 MFI
- MFI parental ratio [26]: 1.4 fold
- MFI [27]: 4070 MFI
- MFI parental ratio [28]: 1.5 fold
B10: variant CD155 IgV-Fc P18L/L79V/F91S (Fc fusion, not shown: a dimerising Fc or GST)
chain: B9 chain with P18L, L79V, V81A, P83L, F91S

- MFI [23]: 3590 MFI
- MFI parental ratio [24]: 0.8 fold
- MFI [25]: 2510 MFI
- MFI parental ratio [26]: 1 fold
- MFI [27]: 2940 MFI
- MFI parental ratio [28]: 1.1 fold
B11: variant CD155 IgV-Fc P18T/F91S/R94H (Fc fusion, not shown: a dimerising Fc or GST)
chain: B9 chain with P18T, V81A, P83L, F91S, R94H
